The source of these data is US20240225985A1, “BRIGHTENING COMPOSITIONS AND METHODS OF USE” (Alastin Skincare, Inc., priority 2021, published 2024).

“Also recorded” adds a separate entry of the source.

For data set [1], the system named is melanocytes. The experiment in a line: In vitro melanocyte comparative analysis via absorbance readings (melanin production). The following applies: for Absorbance 405 nm / Absorbance 490 nm / Absorbance 492 nm: 4 days, control = 0.0 row. It counts as cell-based. The protocol: Melanocytes were cultured in 6-well plates containing growth media. Once confluent, 2 concentrations of each of the 10 compounds were added to the cells in triplicate wells for 4 days. There were a total of eleven 6-well plates, one for each compound treatment and one for the vehicle control. Absorbance readings were taken on the lysates prepared for each well of the 6-well plates, normalizing for cells counts. The model was initially tested for accuracy and validated using hexapeptide-12 in view of strong gene expression results with melanocyte cell line in the first study—confirmation of decreased stimulation was obtained. Additional validation was carried out using MSH addition to media to confirm increased stimulation of melanin production. The following compounds used in this study are seen in Table 9.

A further data set relates to endothelial cells. The experiment in a line: Gene expression of PMEL, tyrosinase genes, MC1/4R, EDNRB, MITF, ERK1/2, JNK, AKT1. It counts as cell-based. As to conditions: after treatment of endothelial cells. An excerpt: The methods similar to Examples 3-4 were used to measure expression of PMEL, tyrosinase genes, MC1/4R, EDNRB, MITF, ERK1/2, JNK, and ANKT1.
FIGS. 10A-10D illustrates the expression of PMEL (FIG. 10A), Tyrosinase genes (FIG. 10B), MC1/4R (FIG. 10C), and EDNRB (FIG. 10D) after treatment of endothelial cells with lactoferrin (Lacto), peptide derived from lactoferrin (TCV), hexapeptide-12 (Hex12), tripeptide-1 and hexapeptide-12 (TriHex), hexapeptide-11 (Hex11), tranexamic acid (Tran acid) octapeptide (Octa), phosphatidylserine (phos), Cannabidiol (CBD), and all (total).
MITF is regulated by phosphorylation. Specifically, the MAPK and Akt pathways are known to phosphorylate MITF at certain sites. FIGS. 12A-12C illustrate the expression of ERK1/2 (MAPK3/MAPK1) (FIG. 12A), JNK (FIG. 12B), AKT1 (FIG. 12C) after treatment of endothelial cells with lactoferrin (Lacto), peptide derived from lactoferrin (TCV), hexapeptide-12 (Hex12), tripeptide-1 and hexapeptide-12 (TriHex), hexapeptide-11 (Hex11), octapeptide (Octa), phosphatidylserine (phos), Cannabidiol (CBD), and all (total).

Data set [2] deals with hTERT-immortalized dermal melanocytes. The data set can be described thus: Melanocyte assay, daily inspection of cell morphology. The data set is classed as cell-based, human. The following applies: both concentrations of Table 11; five-day dosing period. Here is the method:
Once the melanocytes were 100% confluent in 6-well plates, the melanocyte growth media was removed and the melanocytes were treated with media containing the above compounds; duplicate wells for each compound/concentration listed above. The duplicate vehicle control wells were fed melanocyte growth media only or melanocyte growth media with DMSO (10 uL per 10 mL melanocyte growth media).
The cells were fed the appropriate media for the next 5 days. Each day, the cells were inspected for morphology.

Data set [3] concerns melanocytes. The experiment in a line: Gene expression study (RNA sequencing) in PGE2-induced melanocytes. As to conditions: melanocytes induced with 10 uM PGE2; 24 hours of compound exposure. It counts as cell-based, human. Here is the method:
Four cell types associated with pigmentation pathways—melanocytes, keratinocytes, fibroblasts and endothelial (HUVEC) cells—were analyzed for gene expression.
To simulate the UV stimulatory pigmentation pathway process, melanocytes were pre-treated with PGE2, a normal direct consequence of UV light exposure usually emanating from exposed keratinocytes. After the 48 hour attachment culture, these melanocytes were induced with 10 uM PGE2 in melanocyte media for 24 hrs. The four primary human adult dermal cell lines were cultured and plated in well plates in triplicate and then treated with 11 different compound treatments (plus DMSO control). After 48 hours of attachment culture, the remaining fibroblasts, HUVECs and keratinocytes were treated with the test compounds listed in Table 8.
After 24 hours of compound exposure, RNA lysate preparation was carried out and samples were shipped to MedGenome for RNA extraction, library construction and sequencing to 25M paired end 100 bp reads per sample. Library prep and sequencing was completed at MedGenome.

Where [4] appears, read: higher concentration (Lactoferrin 1000, HEX-11 200, Phosphatidylserine 500, Silymarin 20, Sesamol 100, Tranexamic Acid 1000, HEX-12 4.9, ug/mL or ug/uL; Phytoene/Phytofluene 5.00%).
Where [5] appears, read: lower concentration (Lactoferrin 500, HEX-11 100, Phosphatidylserine 250, Silymarin 10, Sesamol 50, Tranexamic Acid 500, HEX-12 2.9, ug/mL or ug/uL; Phytoene/Phytofluene 2.50%).

B1: Lactoferrin: 80 kDa iron binding glycoprotein of the transferrin family (protein)
chain: APRKNVRWCTISQPEWFKCRRWQWRMKKLGAPSITCVRRAFALECIRAIAEKKADAVTLDGGMVFEACRDPYKLRPVAAEIYGTKESPQTHYYAVAVVKKGSNFQLDQLQGRKSCHTGLGRSAGWIIPMGILRPYLSWTESLEPLQGAVAKFFSASCVPCIDRQAYPNLCQLCKGEGENQCACSSREPYFGYSGAFKCLQDGAGDVAFVKETTVFENLPEKADRDQYELLCLNNSRAPVDAFKECHLAQVPSHAVVARSVDGKEDLIWKLLSKAQEKFGKNKSRSFQLFGSPPGQRDLLFKDSALGFLRIPSKVDSALYLGSRYLTTLKNLRETAEEVKARYTRVVWCAVGPEEQKKCQQWSQQSGQNVTCATASTTDDCIVLVLKGEADALNLDGGYIYTAGKCGLVPVLAENRKSSKHSSLDCVLRPTEGYLAVAVVKKANEGLTWNSLKDKKSCHTAVDRTAGWNIPMGLIVNQTGSCAFDEFFSQSCAPGADPKSRLCALCAGDDQGLDKCVPNSKEKYYGYTGAFRCLAEDVGDVAFVKNDTVWENTNGESTADWAKNLNREDFRLLCLDGTRKPVTEAQSCHLAVAPNHAVVSRSDRAAHVKQVLLHQQALFGKNGKNCPDKFCLFKSETKNLLFNDNTECLAKLGGRPTYEEYLGTEYVTAIANLKKCSTSPLLEACAFLTR
For B1, in the data set with melanocytes [1] (setting [4]), the “Absorbance 405 nm” value is 0.519, the “Absorbance 490 nm” value was found to be 0.312 and the “Absorbance 492 nm” value came to 0.226. Also, in the data set on melanocytes [1] (setting [5]), the “Absorbance 405 nm” value is 0.509, the “Absorbance 490 nm” value stood at 0.334 and the “Absorbance 492 nm” value is reported as 0.217. In the data set on melanocytes [1] (melanocytes, summary of Table 10), the “Regulation of melanogenesis (decreased absorption denoting decreased melanin formation)” value is “Regulation of melanogenesis was observed”. Besides, in the data set with endothelial cells, the “melanogenic activity (expression of PMEL, tyrosinase genes, MC1/4R, EDNRB, kinases)” value is “robust melanogenic activity; also recorded: significant effects on such melanogenic activity”. For the same molecule, the “melanocyte morphology / survival on daily inspection” value in data set [2] is “developed a circular morphology rather the normal webbed morphology 24 hour post-initial dosing; also recorded: at 48 hours post-initial dosing, the melanocytes returned to normal morphology”. Further, the “melanogenic gene activity in melanocytes” value in the data set with melanocytes [3] is given as “particularly dominant in melanogenic activity; also recorded: significant effects on melanogenesis activity”.
